In publication doi:10.1101/2021.09.12.459413:

Biological target: freshly isolated human LDL (human)
Assay: ELISA

B1: rabbit SAMD1 fragment from a.a. 238 to the C-terminus end at a.a. 550 (domain or fragment)
chain: QQPQPPPEGGAARAGGPARPVSLREVVRYLGGSSGAGGRLTRGRVQGLLEEEAAARGRLERTRLGALALPRGDRPGRAPPAASARAARNKRAGEERVLEKEEEEEEEEDDEDDDDDVVSEGSEVPESDRPAGAQHHQLNGGERGPQTAKERAKEWSLCGPHPGQEEGRGPAAGSGTRQVFSMAALSKEGGSASSTTGPDSPSPVPLPPGKPALPGADGTPFGCPAGRKEKPADPVEWTVMDVVEYFTEAGFPEQATAFQEQEIDGKSLLLMQRTDVLTGLSIRLGPALKIYEHHIKVLQQGHFEDDDPEGFLG
Question: For B1, which Kd is on record?
Answer: Its Kd is 15 nM.
